For one substance, IC50 and Kd results are on record in US20220073922A1.

Assay [1] concerns the target human VEGF-121 (human) (UniProt P15692). In words: receptor competition assay: His-tagged human VEGF-121 (0.1 nM) on beads with 1 nM human VEGF Receptor 2 and varied Lucentis; bound receptor fraction by flow cytometry, dose-response inhibition fit; blocked partner: VEGF Receptor 2. A general note: A flow cytometer gives signals particle by particle.
The target is the same in assay [2]. In words: receptor competition assay: His-tagged human VEGF-121 (0.1 nM) on beads with 1 nM human VEGF Receptor 1 and varied Lucentis; bound receptor fraction by flow cytometry, dose-response inhibition fit; blocked partner: VEGF Receptor 1.
Assay [3] has the same target. In words: magnetic-bead partitioning binding assay read by flow cytometry; bound fraction against VEGF-121 concentration (1e-12 to about 1e-8 M), Langmuir one-site fit; how Lucentis was immobilised is not described.

human VEGF-121 (human), sequence (P15692 other isoform, or with tags, fused parts or gaps limits assumed): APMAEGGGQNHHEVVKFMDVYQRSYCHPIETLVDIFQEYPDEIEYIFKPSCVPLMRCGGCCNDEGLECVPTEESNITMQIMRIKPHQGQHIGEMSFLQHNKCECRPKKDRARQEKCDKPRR

Lucentis® (Fab): the IC50 – broadly, the midpoint of a concentration-inhibition curve – in assay [1] amounted to 2.36 nM; in assay [2], 5.58 nM. Also, the Kd (usually the concentration at which binding is half-saturated) in assay [3] is 1.69 nM.
